# Laboratory results as given in patent US20250011363A1, “OPTIMIZED SHORTENED PEPTIDE THAT BINDS TO ACETYLCHOLINE RECEPTOR, AND USE THEREOF” (SKINMED CO., LTD., priority 2021, published 2025).
# B1: 5mer-594 (peptide)
# peptide: KQYSR
# B2: 5mer-566 (peptide)
# peptide: KQLYK
# B3: 5mer-263 (peptide)
# peptide: KQVTR
# B4: 5mer-262 (peptide)
# peptide: KSRCR
# B5: 5mer-580 (peptide)
# peptide: RGYTR
# B6: 5mer-582 (peptide)
# peptide: RGICK
# B7: 5mer-595 (peptide)
# peptide: KWQQR
# B8: 5mer-571 (peptide)
# peptide: RRLTK
# B9: 5mer-568 (peptide)
# peptide: KQITR
# B10: 5mer-276 (peptide)
# peptide: RSLRR
# B11: 5mer-579 (peptide)
# peptide: RSLYK
# B12: 5mer-293 (peptide)
# peptide: RQYYR
# B13: 5mer-268 (peptide)
# peptide: KRYCK
# B14: 5mer-590 (peptide)
# peptide: KQYTK
# B15: 5mer-574 (peptide)
# peptide: KGFTR
# B16: 5mer-578 (peptide)
# peptide: KSVLR
# B17: 5mer-277 (peptide)
# peptide: RVFTR
# B18: 5mer-282 (peptide)
# peptide: RVLTR
# B19: 5mer-287 (peptide)
# peptide: KRYRR
# B20: 5mer-289 (peptide)
# peptide: RRQYR
# B21: 5mer-284 (peptide)
# peptide: KQVQR
# B22: 5mer-586 (peptide)
# peptide: KGRRR
# B23: 5mer-280 (peptide)
# peptide: KWILK
# B24: 5mer-266 (peptide)
# peptide: KSYQK
# B25: 5mer-260 (peptide)
# peptide: KVYRR
# B26: 5mer-283 (peptide)
# peptide: KWVYK
# B27: 5mer-272 (peptide)
# peptide: KGYQR
# B28: 5mer-572 (peptide)
# peptide: KLRTK
# B29: 5mer-575 (peptide)
# peptide: KGFYR
# B30: 5mer-559 (peptide)
# peptide: KQQLK
# B31: 5mer-281 (peptide)
# peptide: RGFLK
# B32: 5mer-290 (peptide)
# peptide: RGYYR
# B33: 5mer-589 (peptide)
# peptide: KGLCR
# B34: 5mer-285 (peptide)
# peptide: KGQLK
# B35: 5mer-573 (peptide)
# peptide: RSIYR
# B36: 5mer-270 (peptide)
# peptide: RSQQR
# B37: 5mer-267 (peptide)
# peptide: KRLLK
# B38: 5mer-563 (peptide)
# peptide: RLVLK
# B39: 5mer-273 (peptide)
# peptide: RVQSK
# B40: 5mer-564 (peptide)
# peptide: RSRYR
# B41: 5mer-569 (peptide)
# peptide: RQQRK
# B42: 5mer-557 (peptide)
# peptide: KQRRK
# B43: 5mer-567 (peptide)
# peptide: RRYCK
# B44: 5mer-576 (peptide)
# peptide: RLFRK
# B45: 5mer-585 (peptide)
# peptide: RSVSK
# B46: 5mer-588 (peptide)
# peptide: RSFTR
# B47: 5mer-592 (peptide)
# peptide: RWLCR
# B48: 5mer-259 (peptide)
# peptide: RLIRK
# B49: 5mer-264 (peptide)
# peptide: KWYRK
# B50: 5mer-570 (peptide)
# peptide: KLVRR
# B51: 5mer-560 (peptide)
# peptide: KWYQR
# B52: 5mer-258 (peptide)
# peptide: KRQYK
# B53: 5mer-279 (peptide)
# peptide: RVVTK
# B54: 5mer-292 (peptide)
# peptide: KLVCK
# B55: 5mer-583 (peptide)
# peptide: KVVYR
# B56: 5mer-596 (peptide)
# peptide: KLQQR
# B57: 5mer-294 (peptide)
# peptide: KQYYK
# B58: 5mer-271 (peptide)
# peptide: RGRYR
# B59: 5mer-561 (peptide)
# peptide: KWRCK
# B60: 5mer-558 (peptide)
# peptide: RWRYK
# B61: 5mer-278 (peptide)
# peptide: RWQRR
# B62: 5mer-275 (peptide)
# peptide: KVYTR
# B63: 5mer-265 (peptide)
# peptide: RWQCR
# B64: 5mer-562 (peptide)
# peptide: RVRQR
# B65: 5mer-591 (peptide)
# peptide: RVYTK
# B66: 5mer-587 (peptide)
# peptide: RVITR
# B67: 5mer-577 (peptide)
# peptide: KLVTK
# B68: 5mer-288 (peptide)
# peptide: KLILK
# B69: 5mer-269 (peptide)
# peptide: RLFLR
# B70: 5mer-584 (peptide)
# peptide: KQIQK
# B71: 5mer-581 (peptide)
# peptide: KGVLR
# B72: 5mer-291 (peptide)
# peptide: RWFTR
# B73: 5mer-286 (peptide)
# peptide: RWFQK
# B74: 5mer-295 (peptide)
# peptide: RGRCR
# B75: 5mer-296 (peptide)
# peptide: KWISK
# B76: 5mer-274 (peptide)
# peptide: RQVRK
# B77: 5mer-593 (peptide)
# peptide: KQYLK
# B78: 5mer-565 (peptide)
# peptide: RLVSK
# B79: 5mer-261 (peptide)
# peptide: RRVLR
# Target: acetylcholine receptor
# Experiment: SPR, AchR immobilised on chip, peptide at 10 uM
row,Binding affinity (RU),Binder
1,50,B1
2,78,B2
3,80,B3
4,59,B4
5,70,B5
6,82,B6
7,58,B7
8,51,B8
9,64,B9
10,70,B10
11,53,B11
12,83,B12
13,54,B13
14,81,B14
15,59,B15
16,65,B16
17,82,B17
18,77,B18
19,68,B19
20,87,B20
21,52,B21
22,78,B22
23,53,B23
24,66,B24
25,57,B25
26,51,B26
27,83,B27

row,Binding affinity (RU),Binder
1,58,B28
2,69,B29
3,81,B30
4,58,B31
5,57,B32
6,58,B33
7,75,B34
8,84,B35
9,52,B36
10,66,B37
11,60,B38
12,82,B39
13,74,B40
14,79,B41
15,87,B42
16,63,B43
17,62,B44
18,74,B45
19,60,B46
20,56,B47
21,71,B48
22,50,B49
23,56,B50
24,59,B51
25,84,B52
26,56,B53
27,59,B54

row,Binding affinity (RU),Binder
1,75,B55
2,56,B56
3,50,B57
4,68,B58
5,72,B59
6,84,B60
7,66,B61
8,64,B62
9,77,B63
10,70,B64
11,61,B65
12,66,B66
13,77,B67
14,73,B68
15,85,B69
16,76,B70
17,65,B71
18,72,B72
19,71,B73
20,52,B74
21,55,B75
22,62,B76
23,77,B77
24,77,B78
25,59,B79
